Assay results reported in publication PMC3985873.
Numbering of substitutions follows the chain as printed. Read-outs that look alike come from different tables or passages of the source.

T1: MutS (Thermus aquaticus, UniProt Q56215 1-811)
T1 sequence: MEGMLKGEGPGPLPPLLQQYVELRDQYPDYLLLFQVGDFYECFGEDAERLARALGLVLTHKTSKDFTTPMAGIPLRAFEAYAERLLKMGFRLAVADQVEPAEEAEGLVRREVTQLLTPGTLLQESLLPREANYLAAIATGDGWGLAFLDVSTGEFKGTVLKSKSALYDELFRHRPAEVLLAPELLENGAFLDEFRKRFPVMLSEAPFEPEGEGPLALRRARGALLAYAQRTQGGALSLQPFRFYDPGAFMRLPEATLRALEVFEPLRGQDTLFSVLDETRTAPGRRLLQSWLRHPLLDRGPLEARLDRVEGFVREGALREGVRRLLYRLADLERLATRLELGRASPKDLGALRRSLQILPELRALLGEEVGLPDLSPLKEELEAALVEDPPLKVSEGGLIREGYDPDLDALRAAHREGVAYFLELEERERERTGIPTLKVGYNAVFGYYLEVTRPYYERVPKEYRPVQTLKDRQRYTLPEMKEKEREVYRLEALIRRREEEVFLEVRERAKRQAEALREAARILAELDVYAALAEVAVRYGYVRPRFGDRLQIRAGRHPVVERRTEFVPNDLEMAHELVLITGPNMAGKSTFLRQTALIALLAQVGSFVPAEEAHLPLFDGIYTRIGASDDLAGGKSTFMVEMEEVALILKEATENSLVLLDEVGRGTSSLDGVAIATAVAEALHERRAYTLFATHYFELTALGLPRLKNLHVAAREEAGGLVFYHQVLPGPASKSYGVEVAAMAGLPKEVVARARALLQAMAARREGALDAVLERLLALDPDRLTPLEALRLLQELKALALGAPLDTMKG

T2: MutS-E41A (Thermus aquaticus, UniProt Q56215 1-811, E41A)
T2 sequence: T1 sequence with E41A

B1: GT mismatch DNA (A1/B1/C1-GT) (dsDNA)
DNA 1: TGTCGGGGCTGGCTTAAGGTGTGAAATACCTCATCTCGAGCGTGCCGATA
DNA 2: TATCGGCACGTTCGAGATG
DNA 3: AGGTATTTCACACCTTAAGCCAGCCCCGACA
B2: T-bulge DNA (A1/B1/C2-T-bulge) (dsDNA)
DNA 1: B1 DNA 1
DNA 2: TATCGGCACGTCTCGAGATG
DNA 3: B1 DNA 3

Assays:
Test in all cases: smFRET
MutS [1] = target: T1, MutS
MutS-E41A [2] = target: T2, MutS-E41A
MutS-E41A [3] = target: T2, MutS-E41A; remark: listed apart in the source
MutS [4] = target: T1, MutS; remark: listed apart in the source

Row | Binder | binding result (MutS [1]) | binding result (MutS-E41A [2]) | binding result (MutS-E41A [3]) | binding result (MutS [4])
1 | B1 | binds | binds | – | –
2 | B2 | – | – | binds | binds
